Data reported in US10407473B2, “Methods for treating disorders that involve immunoglobulin A” (UNIVERSITY OF MANITOBA, priority 2011, dated 2019).

How the values were obtained:
[1] = test system: mouse B cells stimulated to produce IgA; assay: IgA production by cultured, stimulated mouse splenic B cells (ELISA of supernatants, flow cytometry); type: cell-based; conditions: FIG. 8, C57BL6 spleen B cells cultured 5 days with stimuli and a percentage of supernatant, vs Control SN
Excerpt: A polypeptide of the present invention having immunoregulatory activity inhibits IgA production by B cells in vitro. Whether a polypeptide has immuno-modulatory activity may be determined by in vitro assays. An example of an in vitro assay is described in Example 1. The assay uses B cells, which in one embodiment may be a primary cell obtained from an animal, such as a mouse or human, or in another embodiment may be a B cell line. When obtained from an animal, B cells may be obtained from lymphoid tissues such as spleen, tonsil, and lymph node. […]
Single cell suspensions were generated from the indicated tissues and were pre-incubated with hybridoma supernatant containing Fc receptor blocking antibody. […] Data were analyzed using FlowJo software (TreeStar).
Serum, saliva and bronchoalveolar lavage fluid were collected from 10-14 week old FDC-SP-deficient mice, FDC-SP transgenic mice and strain, age and sex-matched controls. […] Total antibodies levels were determined by coating with anti-mouse IgM or IgA (Jackson ImmunoResearch Laboratories) and NP-specific antibodies levels were determined by coating plates with NP20-BSA (Biosearch Technologies). […]

T lymphoma cells = conditions: secreted FDC-SP; cited from earlier work
B lymphoma cells = conditions: secreted FDC-SP; cited from earlier work
[2] = Toxicity observation in FDC-SP transgenic mice; type: in vivo; conditions: transgenic mice expressing increased levels of FDC-SP polypeptide
Excerpt: FDC-SP transgenic CD1 mice (i.e., mice constitutively expressing FDC-SP in lymphoid tissues) were generated as described (Al-Alwan et al., 2007, J. Immunol., 178:7859-7867). All experimental animals were housed at the Central Animal Care Facility (University of Manitoba, Winnipeg, MB) in compliance with the guidelines established by the Canadian Council on Animal Care.

| Molecule | IgA production in vitro [1] | binding to the surface of T lymphoma cells (T lymphoma cells) | binding to the surface of B lymphoma cells (B lymphoma cells) | toxicity associated with the polypeptide [2] |
| --- | --- | --- | --- | --- |
| FDC-SP SN: supernatant of L cells transfected with FDC-SP expression vector, containing recombinant FDC-SP (protein, UniProt Q8NFU4 18-85, looked up, in L cell culture supernatant) Follicular dendritic cell …: FPVSQDQEREKRSISDSDELASGFFVFPYPYPFRPLPPIPFPRFPWFRRNFPIPIPESAPTTPLPSEK | suppressed | – | – | – |
| FDC-SP: secreted immuno-modulatory polypeptide expressed by activated follicular dendritic cells (protein, UniProt Q8NFU4 18-85, looked up) Follicular dendritic cell …: FPVSQDQEREKRSISDSDELASGFFVFPYPYPFRPLPPIPFPRFPWFRRNFPIPIPESAPTTPLPSEK | – | not | can bind | no evidence of toxicity |
